Test results published in PMC7192597, “Mechanistic insights from structure of Mycobacterium smegmatis topoisomerase I with ssDNA bound to both N- and C-terminal domains”.

Assays:
[1] = biological target: T1, MsmTOP1 full length (topoisomerase I) (Mycobacterium smegmatis mc2 155, UniProt A0R5D9 1-936); test: fluorescence anisotropy; Kd could not be determined; no Mg2+, 0.1 mM EDTA; Anisotropy: 50 mM Tris-HCl pH 7.5, 100 mM NaCl, 0.1 mM EDTA, room temperature; crystal: 0.1 M Tris-HCl pH 8.5, 1.5 M lithium sulfate, 16 C, protein:ssDNA 1:2; conditions: protein: recombinant; tags: His6-Mocr removed by TEV (N-terminal SNA left); label: 3' 6-carboxyfluorescein; single strand
T1 sequence: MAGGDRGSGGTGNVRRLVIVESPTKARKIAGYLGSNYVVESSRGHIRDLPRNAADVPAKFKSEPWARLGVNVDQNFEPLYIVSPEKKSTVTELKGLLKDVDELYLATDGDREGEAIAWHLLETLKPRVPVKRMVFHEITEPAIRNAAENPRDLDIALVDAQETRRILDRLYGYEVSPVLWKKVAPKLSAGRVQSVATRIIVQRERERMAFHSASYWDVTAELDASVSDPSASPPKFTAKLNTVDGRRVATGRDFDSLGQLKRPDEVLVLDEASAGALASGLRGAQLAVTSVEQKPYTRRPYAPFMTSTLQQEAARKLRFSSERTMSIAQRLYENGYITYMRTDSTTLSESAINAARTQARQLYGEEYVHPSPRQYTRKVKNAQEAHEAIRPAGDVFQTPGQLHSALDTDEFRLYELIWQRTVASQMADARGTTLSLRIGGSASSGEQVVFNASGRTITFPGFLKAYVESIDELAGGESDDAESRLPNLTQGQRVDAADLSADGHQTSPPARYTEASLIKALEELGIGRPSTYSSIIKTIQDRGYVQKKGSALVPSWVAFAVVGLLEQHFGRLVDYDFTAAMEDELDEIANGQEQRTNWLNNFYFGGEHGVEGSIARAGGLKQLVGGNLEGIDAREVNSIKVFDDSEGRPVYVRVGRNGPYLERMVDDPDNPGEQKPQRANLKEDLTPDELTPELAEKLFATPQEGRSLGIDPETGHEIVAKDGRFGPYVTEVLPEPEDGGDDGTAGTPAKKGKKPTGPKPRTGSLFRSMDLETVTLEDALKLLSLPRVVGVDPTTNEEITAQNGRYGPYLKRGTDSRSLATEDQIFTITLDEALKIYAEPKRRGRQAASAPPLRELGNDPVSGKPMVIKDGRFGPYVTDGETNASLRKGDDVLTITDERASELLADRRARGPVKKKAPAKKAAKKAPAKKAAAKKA

MsmTOP1-839t (D1-D7) = biological target: T2, MsmTOP1-839t (D1-D7) (Mycobacterium smegmatis mc2 155, UniProt A0R5D9 1-839); test: X-ray crystallography (3.1 A); no metal ion at active site; ssDNA at both N-terminal and D6-D7 domains; Anisotropy: 50 mM Tris-HCl pH 7.5, 100 mM NaCl, 0.1 mM EDTA, room temperature; crystal: 0.1 M Tris-HCl pH 8.5, 1.5 M lithium sulfate, 16 C, protein:ssDNA 1:2; conditions: protein: recombinant; tags: His6-Mocr removed by TEV (N-terminal SNA left); single strand; in crystal two copies pair through 5' regions (12 bp, six non-Watson-Crick pairs/mismatches)
T2 sequence: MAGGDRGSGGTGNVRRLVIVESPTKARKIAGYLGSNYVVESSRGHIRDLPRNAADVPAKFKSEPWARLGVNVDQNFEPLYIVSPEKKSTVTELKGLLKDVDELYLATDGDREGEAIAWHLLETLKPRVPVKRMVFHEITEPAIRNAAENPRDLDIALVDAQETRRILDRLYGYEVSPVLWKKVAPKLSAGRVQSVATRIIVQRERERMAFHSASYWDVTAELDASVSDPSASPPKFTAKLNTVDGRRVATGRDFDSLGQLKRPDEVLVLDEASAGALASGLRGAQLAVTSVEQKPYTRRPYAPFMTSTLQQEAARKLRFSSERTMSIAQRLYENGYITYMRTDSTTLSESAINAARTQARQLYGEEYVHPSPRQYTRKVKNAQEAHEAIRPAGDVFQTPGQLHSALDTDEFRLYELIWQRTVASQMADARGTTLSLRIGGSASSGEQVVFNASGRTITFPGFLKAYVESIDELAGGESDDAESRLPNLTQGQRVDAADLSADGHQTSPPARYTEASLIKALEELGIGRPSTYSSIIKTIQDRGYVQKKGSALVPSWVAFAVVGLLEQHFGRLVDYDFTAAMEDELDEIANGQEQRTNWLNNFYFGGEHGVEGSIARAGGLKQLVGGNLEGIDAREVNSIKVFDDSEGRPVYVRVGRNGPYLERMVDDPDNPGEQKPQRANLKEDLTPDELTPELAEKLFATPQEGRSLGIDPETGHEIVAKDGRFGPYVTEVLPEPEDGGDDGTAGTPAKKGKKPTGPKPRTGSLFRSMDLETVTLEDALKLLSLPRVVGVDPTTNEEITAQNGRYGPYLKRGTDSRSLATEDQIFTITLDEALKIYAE

MsmTOP1-701t (D1-D5) = biological target: T3, MsmTOP1-701t (D1-D5) (Mycobacterium smegmatis mc2 155, UniProt A0R5D9 1-701); test: fluorescence anisotropy; no Mg2+, 0.1 mM EDTA; Anisotropy: 50 mM Tris-HCl pH 7.5, 100 mM NaCl, 0.1 mM EDTA, room temperature; crystal: 0.1 M Tris-HCl pH 8.5, 1.5 M lithium sulfate, 16 C, protein:ssDNA 1:2; conditions: protein: recombinant; tags: His6-Mocr removed by TEV (N-terminal SNA left); label: 3' 6-carboxyfluorescein; single strand
T3 sequence: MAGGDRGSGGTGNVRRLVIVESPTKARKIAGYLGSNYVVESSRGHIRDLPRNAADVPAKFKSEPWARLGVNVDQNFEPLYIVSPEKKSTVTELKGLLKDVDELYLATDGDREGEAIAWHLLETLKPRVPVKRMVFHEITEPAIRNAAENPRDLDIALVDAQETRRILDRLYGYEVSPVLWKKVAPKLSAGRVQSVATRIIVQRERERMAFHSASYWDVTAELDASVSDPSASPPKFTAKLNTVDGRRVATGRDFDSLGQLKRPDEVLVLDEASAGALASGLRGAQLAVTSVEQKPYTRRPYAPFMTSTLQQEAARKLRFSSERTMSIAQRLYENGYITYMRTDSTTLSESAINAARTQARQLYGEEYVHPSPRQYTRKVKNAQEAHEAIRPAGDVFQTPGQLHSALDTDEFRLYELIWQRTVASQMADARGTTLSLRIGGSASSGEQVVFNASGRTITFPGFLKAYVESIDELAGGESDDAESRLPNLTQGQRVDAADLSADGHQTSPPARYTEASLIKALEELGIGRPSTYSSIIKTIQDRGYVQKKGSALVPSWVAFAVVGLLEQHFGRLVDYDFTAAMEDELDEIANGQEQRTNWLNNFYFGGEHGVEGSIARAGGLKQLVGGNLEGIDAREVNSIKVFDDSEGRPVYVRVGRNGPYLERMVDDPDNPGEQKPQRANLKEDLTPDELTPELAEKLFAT

[2] = biological target: T1, MsmTOP1 full length (topoisomerase I); test: as above; conditions: protein: recombinant; tags: His6-Mocr removed by TEV (N-terminal SNA left); label: 3' 6-carboxyfluorescein; single strand

CTTCCGCTTGACAT (ssDNA) [MTS3-14]
binding result [1]: binds

CAGTGAGCGAGCTTCCGCTTGACTT (ssDNA) [MTS2-25]
binding result (MsmTOP1-839t (D1-D7)): binds

CAGTGAGCGAGCTTCCGCTTGACATCCCAATA (ssDNA) [STS32]
Kd (MsmTOP1-701t (D1-D5)): 14.9 nM
Kd [2]: 0.3 nM
